Key:
Experiment in all cases: negative-stain EM
[1] = molecular target: H2/1 GCN4 (SG57 head, PR8 stalk, GCN4-trimerized) (influenza A virus A/Puerto Rico/8/34/Mount Sinai(H1N1) | influenza A virus A/Singapore/1/1957(H2N2))
[2] = molecular target: H5 GCN4 (IN05 HA, GCN4-trimerized) (influenza A virus A/Indonesia/5/2005(H5N1))
[3] = molecular target: H5/1 GCN4 (IN05 head, PR8 stalk, GCN4-trimerized) (influenza A virus A/Puerto Rico/8/34/Mount Sinai(H1N1) | influenza A virus A/Indonesia/5/2005(H5N1))

Substance: H2/1 GCN4 (SG57 head, PR8 stalk, GCN4-trimerized) (domain or fragment)
- stoichiometry N [1]: 3

Substance: H5 GCN4 (IN05 HA, GCN4-trimerized) (domain or fragment)
- stoichiometry N [2]: 3

Substance: H5/1 GCN4 (IN05 head, PR8 stalk, GCN4-trimerized) (domain or fragment)
- stoichiometry N [3]: 3

From article PMC10998906
